Conditions in all cases: remark: other sources report otherwise
The target of test [1] is recombinant soluble homotrimeric HA of A/Anhui/1/05 (H5N1) (Influenza A virus A/Anhui/1/2005 (H5N1)). As to the kind of experiment: HA microarray, BCC supernatant.
For test [2], the target named is recombinant soluble homotrimeric HA of A/California/4/09 (H1N1) (Influenza A virus A/California/04/2009 (H1N1)). As to the kind of experiment: HA microarray, BCC supernatant.
Test [3] has as its target recombinant soluble homotrimeric HA of A/Hong Kong/2108/03 (H9N2) (Influenza A virus A/Hong Kong/2108/2003 (H9N2)). Description: HA microarray, BCC supernatant.
The target of test [4] is recombinant soluble homotrimeric HA of A/Indonesia/5/05 (H5N1) (Influenza A virus A/Indonesia/5/2005 (H5N1)). As to the kind of experiment: HA microarray, BCC supernatant.
The target in test [5] is recombinant soluble homotrimeric HA of A/Japan/305/57 (H2N2) (Influenza A virus A/Japan/305/1957 (H2N2)). As to the kind of experiment: HA microarray, BCC supernatant.
Test [6] has as its target recombinant soluble homotrimeric HA of A/Netherlands/219/03 (H7N7) (Influenza A virus A/Netherlands/219/03 (H7N7)). Description: HA microarray, BCC supernatant.
Test [7] addresses recombinant soluble homotrimeric HA of A/Solomon Islands/3/06 (H1N1) (Influenza A virus A/Solomon Islands/3/2006 (H1N1)). As to the kind of experiment: HA microarray, BCC supernatant.
For test [8], the target named is recombinant soluble homotrimeric HA of A/Vietnam/1203/04 (H5N1) (Influenza A virus A/Vietnam/1203/2004 (H5N1)). As to the kind of experiment: HA microarray, BCC supernatant.
Test [9] has as its target recombinant soluble homotrimeric HA of A/Wisconsin/67/05 (H3N2) (Influenza A virus A/Wisconsin/67/2005 (H3N2)). As to the kind of experiment: HA microarray, BCC supernatant.
Test [10] concerns the target recombinant soluble homotrimeric HA of A/chicken/Vietnam/NCVD-016/08 (H5N1) (Influenza A virus A/chicken/Vietnam/NCVD-016/2008 (H5N1)). Description: HA microarray, BCC supernatant.
The target in test [11] is recombinant soluble homotrimeric HA of A/duck/Yangzhou/02/2005 (H8N4) (Influenza A virus A/duck/Yangzhou/02/2005 (H8N4)). As to the kind of experiment: HA microarray, BCC supernatant.
In test [12] the target is recombinant soluble homotrimeric HA of A/northern shoveler/California/HKWF115/2007 (H6N1) (Influenza A virus A/northern shoveler/California/HKWF115/2007 (H6N1)). Description: HA microarray, BCC supernatant.
In test [13] the target is recombinant soluble homotrimeric HA of A/swine/Ontario/01911-2/99 (H4N6) (Influenza A virus A/Swine/Ontario/01911-2/99 (H4N6)). As to the kind of experiment: HA microarray, BCC supernatant.
In test [14] the target is recombinant soluble homotrimeric HA, A/Netherlands/219/03 (H7N7) (influenza A virus A/Netherlands/219/03 (H7N7)). Description: microarray, trimeric HA, transfection supernatant.
Test [15] has as its target recombinant soluble homotrimeric HA, A/chicken/Vietnam/NCVD-016/08 (H5N1) (influenza A virus A/chicken/Vietnam/NCVD-016/2008 (H5N1)). Description: microarray, trimeric HA, transfection supernatant.
In test [16] the target is recombinant soluble homotrimeric HA, A/northern shoveler/California/HKWF115/2007 (H6N1) (influenza A virus A/northern shoveler/California/HKWF115/2007 (H6N1)). As to the kind of experiment: microarray, trimeric HA, transfection supernatant.
Test [17] has as its target recombinant soluble homotrimeric HA, A/Anhui/1/05 (H5N1) (influenza A virus A/Anhui/1/2005 (H5N1)). Description: microarray, trimeric HA, transfection supernatant.
Test [18] addresses recombinant soluble homotrimeric HA, A/Hong Kong/156/97 (H5N1) (influenza A virus A/Hong Kong/156/97 (H5N1)). Description: microarray, trimeric HA, transfection supernatant.
Test [19] concerns the target recombinant soluble homotrimeric HA, A/duck/Yangzhou/02/2005 (H8N4) (influenza A virus A/duck/Yangzhou/02/2005 (H8N4)). As to the kind of experiment: microarray, trimeric HA, transfection supernatant.
Test [20] concerns the target recombinant soluble homotrimeric HA of A/Egypt/3300-NAMRU3/08 (H5N1) (Influenza A virus A/Egypt/3300-NAMRU3/2008 (H5N1)). Description: HA microarray, BCC supernatant.

Consider seven molecules from patent US20150104459A1.

B1: TCN-527 (5086_C06) (antibody, V domains shown)
VH: QVQLQESGPGLVKPSETLSLNCAVSGGSISNYYWSWIRQPPGKGLEWIGYISYNGRPKYNPSLTSRVTISVDTSKDQFSLELRSVTAADTALYYCARETRFGELLSPYDAFEIWGQGTMVTVSS
VL: DIQMTQSPSSLSASVGDRVTMTCRASQNIRSYLNWYQQRPGTAPKLLIYAASTLHSGVPSRFSGGGSGTDFTLTINNLQPEDFASYYCQQSYDNPQTFGQGTKVEIK
B1: the Trimeric HA Binding RLU in test [1] was determined as 21400 RLU; in test [2], 28000 RLU; in test [3], 16000 RLU; in test [4] it was 23800 RLU; in test [5], 19300 RLU; in [6] it was 8890 RLU. Moreover, the Trimeric HA Binding RLU amounted to 16500 RLU in [7]; 21300 RLU in test [8]; 5720 RLU in test [9]; 27000 RLU in [10]; 28800 RLU in test [11]; 30300 RLU in [12]. Further, the Trimeric HA Binding RLU in test [13] was determined as 7690 RLU.

B2: TCN-558 (5248_H10b) (antibody, V domains shown)
VH: QVQLVQSGSEVKKPGTSVKVSCTASGSVFTNYGISWVRQAPGQGLEWMGGIIPLFGAAKYAQKFQGRVTITADESTKTVYMELSRLTSKDTAIYFCAKAPRVYEYYFDQWGQGTPVTVSS
VL: EIVMTQFPATLSVSPGERVTLSCRASQSVSNNLAWYQQKPGQPPRLLIYDASTRATGVPAKFSGTGSGTEFTLSISSLQSEDFAVYYCQQYHNWPPSYSFGLGTKLEIK
For B2, the Trimeric HA Binding RLU in test [14] was 5840 RLU; in [15], 33400 RLU; in test [16], 29400 RLU.

B3: TCN-546 (5089_L08) (antibody, V domains shown)
VH: QVQLQQWGAGLLKPSETLSLTCGVYGGSLSDYYWSWIRQPPGKGLEWIGEINHSGGTNYNPSLKRRVTISVDTSKKQFSLKMNSVTAADTAVYYCARGTDPDTEVYCRAGNCAAFDFWGQGTLVTVSS
VL: EIVLTQSPGTLSLSPGERATLSCRASHFVIGRAVAWYQQKPGQAPRLLIYGASSRATGIPDRFSGSGSGTDFTLTISRLETEDFAVFYCQHYGSSPRYAFGQGTKLEIK
Turning to B3, the Trimeric HA Binding RLU in [1] was found to be 2040 RLU; in test [2] it was 350 RLU; in test [3] it was 13000 RLU; in [4] it was 18400 RLU; in test [5], 520 RLU; in test [8], 349 RLU. In addition, the Trimeric HA Binding RLU in [9] was determined as 30200 RLU; in [10], 421 RLU; in test [17] it was 33300 RLU; in test [18], 1240 RLU; in test [15] it was 2940 RLU; in test [19], 11400 RLU.

B4: TCN-543 (5081_G23) (antibody, V domains shown)
VH: QVHLVQSGAEVRKPGDSVKVSCKTSGYTFSTYPVAWVRQVPGQGLEWMGWISTYNGNTNFAQNFQGRVTLTTDTTTNTAYMEVRSLKFDDTAVYYCARVEGSYRDFWNNQNRFDPWGQGTLVTVSS
VL: SYVLTQPPSVSVAPGQTARISCGGSNIGGKSVHWYQQKPGQAPVLVVYDDSGRPSGIPERFSGSNSGDTATLTISRVEAGDEADYFCQVWDNFGGVFGTGTKVTVL
For B4, the Trimeric HA Binding RLU was found to be 13100 RLU in test [2]; 661 RLU in test [6]; 511 RLU in [7]; 1360 RLU in test [9]; 1430 RLU in [18]; 12900 RLU in [14]. Further, the Trimeric HA Binding RLU turned out to be 5880 RLU in [15] and 13100 RLU in test [19].

B5: TCN-528 (5087_P17) (antibody, V domains shown)
VH: QVQLVQSGSEVKKPGASVKVSCKASGYTFTNYDINWIRQAPGQGLEWMGWINPNSGTTGSAQRFQGRVTITVDTSITTVYMELSSLRSDDTAIYYCARGRELLRLQHFLTDSQSERRDCFDPWGQGTLVTVSS
VL: DIQMTQSPSSLSASVGDRVTITCRANQDIGIYLNWYQQNPGKVPKLLLHGASSLQGGVPSRFSASGSGTDFTLTIHSLQPEDLATYYCQQSRRLPYTFGQGTRVELK
On to B5, for which the Trimeric HA Binding RLU in [1] came to 49800 RLU; in [2], 48800 RLU; in test [3], 42000 RLU; in [4], 42800 RLU; in test [5], 46400 RLU; in [6], 49300 RLU. Further, the Trimeric HA Binding RLU in [7] came out at 44800 RLU; in test [8], 45600 RLU; in test [9], 48800 RLU; in test [10], 38200 RLU; in [11], 38400 RLU; in [12], 46800 RLU. In [13], the Trimeric HA Binding RLU is 47500 RLU.

B6: TCN-521 (3280_D18) (antibody, V domains shown)
VH: EVQLVQSGGGLVQPGGSLRLACVVSGFTVTSNYITWVRQAPGKGLEWVSVIYSHGRAYYSASVNGRFTISRHTSKNTVYLEMNSLRPEDTAVYYCAGGGLVGGYDEYFFDYWGQGTLATVSS
VL: ETVLTQSPGTLSLTPGERATLSCRVGQSVSGSHLAWYQQKPGQAPRLLIYGASSRATGIPDRFGGSVSGTDFTLTISRLEPEDSAVYYCQQYGDSRYTFGQGTKLEIK
As for B6, the Trimeric HA Binding RLU is 47900 RLU in test [20]; 93 RLU in test [3]; 31500 RLU in test [4]; 6730 RLU in test [5]; 39600 RLU in test [7]; 32400 RLU in test [10]. The Trimeric HA Binding RLU in test [12] amounted to 48000 RLU.

B7: TCN-550 (5096_F06) (antibody, V domains shown)
VH: QVQLQESGPGLVKPSETLSLTCTVSGASINSHYWSWIRQPPGKGLEWIGYVYYSGSTTYNPSLKSRVTLSVDTSKNQFSLNLSSVTAADTAFYYCARHPYDVLTGSGDWFDPWGQGTLVTVSS
VL: SYVLTQAPSVSVAPGQTARITCGGNAIGSKKVHWYQHKAGQAPVLVVYDDTDRPSGIPERFSGSNSWSTATLTINRVEAGDEADYYCQVWDFTIDHVVFGGGTKLTVL
In the case of B7, the Trimeric HA Binding RLU in test [1] was 1210 RLU; in [3], 2280 RLU; in test [4], 9100 RLU; in test [5], 201 RLU; in test [7] it was 204 RLU; in test [8] it was 277 RLU. Further, the Trimeric HA Binding RLU in [9] was determined as 26300 RLU; in test [10], 361 RLU; in test [11] it was 407 RLU; in test [18] it was 955 RLU; in [15] it was 1800 RLU; in [19], 4710 RLU. Besides, in [16], the Trimeric HA Binding RLU came out at 2300 RLU.
